Measured values published in patent publication US20110045489A1, “Polymerases for Incorporating Modified Nucleotides” (NEW ENGLAND BIOLABS, INC., priority 2008, published 2011).

B1: 9° N D141A/E143A/N491V/Y494H: 9° N DNA polymerase mutant (protein, UniProt Q56366 1-775, looked up, variant D141A E143A N491V Y494H)
DNA polymerase: MILDTDYITENGKPVIRVFKKENGEFKIEYDRTFEPYFYALLKDDSAIEDVKKVTAKRHGTVVKVKRAEKVQKKFLGRPIEVWKLYFNHPQDVPAIRDRIRAHPAVVDIYEYDIPFAKRYLIDKGLIPMEGDEELTMLAFAIATLYHEGEEFGTGPILMISYADGSEARVITWKKIDLPYVDVVSTEKEMIKRFLRVVREKDPDVLITYNGDNFDFAYLKKRCEELGIKFTLGRDGSEPKIQRMGDRFAVEVKGRIHFDLYPVIRRTINLPTYTLEAVYEAVFGKPKEKVYAEEIAQAWESGEGLERVARYSMEDAKVTYELGREFFPMEAQLSRLIGQSLWDVSRSSTGNLVEWFLLRKAYKRNELAPNKPDERELARRRGGYAGGYVKEPERGLWDNIVYLDFRSLYPSIIITHNVSPDTLNREGCKEYDVAPEVGHKFCKDFPGFIPSLLGDLLEERQKIKRKMKATVDPLEKKLLDYRQRAIKILAVSFHGYYGYAKARWYCKECAESVTAWGREYIEMVIRELEEKFGFKVLYADTDGLHATIPGADAETVKKKAKEFLKYINPKLPGLLELEYEGFYVRGFFVTKKKYAVIDEEGKITTRGLEIVRRDWSEIAKETQARVLEAILKHGDVEEAVRIVKEVTEKLSKYEVPPEKLVIHEQITRDLRDYKATGPHVAVAKRLAARGVKIRPGTVISYIVLKGSGRIGDRAIPADEFDPTKHRYDAEYYIENQVLPAVERILKAFGYRKEDLRYQKTKQVGLGAWLKVKGKK
B2: 9° N D141A/E143A/R406T/L408R: 9° N DNA polymerase mutant (protein, UniProt Q56366 1-775, looked up, variant D141A E143A R406T L408R)
DNA polymerase: MILDTDYITENGKPVIRVFKKENGEFKIEYDRTFEPYFYALLKDDSAIEDVKKVTAKRHGTVVKVKRAEKVQKKFLGRPIEVWKLYFNHPQDVPAIRDRIRAHPAVVDIYEYDIPFAKRYLIDKGLIPMEGDEELTMLAFAIATLYHEGEEFGTGPILMISYADGSEARVITWKKIDLPYVDVVSTEKEMIKRFLRVVREKDPDVLITYNGDNFDFAYLKKRCEELGIKFTLGRDGSEPKIQRMGDRFAVEVKGRIHFDLYPVIRRTINLPTYTLEAVYEAVFGKPKEKVYAEEIAQAWESGEGLERVARYSMEDAKVTYELGREFFPMEAQLSRLIGQSLWDVSRSSTGNLVEWFLLRKAYKRNELAPNKPDERELARRRGGYAGGYVKEPERGLWDNIVYLDFTSRYPSIIITHNVSPDTLNREGCKEYDVAPEVGHKFCKDFPGFIPSLLGDLLEERQKIKRKMKATVDPLEKKLLDYRQRAIKILANSFYGYYGYAKARWYCKECAESVTAWGREYIEMVIRELEEKFGFKVLYADTDGLHATIPGADAETVKKKAKEFLKYINPKLPGLLELEYEGFYVRGFFVTKKKYAVIDEEGKITTRGLEIVRRDWSEIAKETQARVLEAILKHGDVEEAVRIVKEVTEKLSKYEVPPEKLVIHEQITRDLRDYKATGPHVAVAKRLAARGVKIRPGTVISYIVLKGSGRIGDRAIPADEFDPTKHRYDAEYYIENQVLPAVERILKAFGYRKEDLRYQKTKQVGLGAWLKVKGKK
B3: 9° N D141A/E143A/R406T/L408E: 9° N DNA polymerase mutant (protein, UniProt Q56366 1-775, looked up, variant D141A E143A R406T L408E)
DNA polymerase: MILDTDYITENGKPVIRVFKKENGEFKIEYDRTFEPYFYALLKDDSAIEDVKKVTAKRHGTVVKVKRAEKVQKKFLGRPIEVWKLYFNHPQDVPAIRDRIRAHPAVVDIYEYDIPFAKRYLIDKGLIPMEGDEELTMLAFAIATLYHEGEEFGTGPILMISYADGSEARVITWKKIDLPYVDVVSTEKEMIKRFLRVVREKDPDVLITYNGDNFDFAYLKKRCEELGIKFTLGRDGSEPKIQRMGDRFAVEVKGRIHFDLYPVIRRTINLPTYTLEAVYEAVFGKPKEKVYAEEIAQAWESGEGLERVARYSMEDAKVTYELGREFFPMEAQLSRLIGQSLWDVSRSSTGNLVEWFLLRKAYKRNELAPNKPDERELARRRGGYAGGYVKEPERGLWDNIVYLDFTSEYPSIIITHNVSPDTLNREGCKEYDVAPEVGHKFCKDFPGFIPSLLGDLLEERQKIKRKMKATVDPLEKKLLDYRQRAIKILANSFYGYYGYAKARWYCKECAESVTAWGREYIEMVIRELEEKFGFKVLYADTDGLHATIPGADAETVKKKAKEFLKYINPKLPGLLELEYEGFYVRGFFVTKKKYAVIDEEGKITTRGLEIVRRDWSEIAKETQARVLEAILKHGDVEEAVRIVKEVTEKLSKYEVPPEKLVIHEQITRDLRDYKATGPHVAVAKRLAARGVKIRPGTVISYIVLKGSGRIGDRAIPADEFDPTKHRYDAEYYIENQVLPAVERILKAFGYRKEDLRYQKTKQVGLGAWLKVKGKK
B4: 9° N D141A/E143A/R406S/L408R: 9° N DNA polymerase mutant (protein, UniProt Q56366 1-775, looked up, variant D141A E143A R406S L408R)
DNA polymerase: MILDTDYITENGKPVIRVFKKENGEFKIEYDRTFEPYFYALLKDDSAIEDVKKVTAKRHGTVVKVKRAEKVQKKFLGRPIEVWKLYFNHPQDVPAIRDRIRAHPAVVDIYEYDIPFAKRYLIDKGLIPMEGDEELTMLAFAIATLYHEGEEFGTGPILMISYADGSEARVITWKKIDLPYVDVVSTEKEMIKRFLRVVREKDPDVLITYNGDNFDFAYLKKRCEELGIKFTLGRDGSEPKIQRMGDRFAVEVKGRIHFDLYPVIRRTINLPTYTLEAVYEAVFGKPKEKVYAEEIAQAWESGEGLERVARYSMEDAKVTYELGREFFPMEAQLSRLIGQSLWDVSRSSTGNLVEWFLLRKAYKRNELAPNKPDERELARRRGGYAGGYVKEPERGLWDNIVYLDFSSRYPSIIITHNVSPDTLNREGCKEYDVAPEVGHKFCKDFPGFIPSLLGDLLEERQKIKRKMKATVDPLEKKLLDYRQRAIKILANSFYGYYGYAKARWYCKECAESVTAWGREYIEMVIRELEEKFGFKVLYADTDGLHATIPGADAETVKKKAKEFLKYINPKLPGLLELEYEGFYVRGFFVTKKKYAVIDEEGKITTRGLEIVRRDWSEIAKETQARVLEAILKHGDVEEAVRIVKEVTEKLSKYEVPPEKLVIHEQITRDLRDYKATGPHVAVAKRLAARGVKIRPGTVISYIVLKGSGRIGDRAIPADEFDPTKHRYDAEYYIENQVLPAVERILKAFGYRKEDLRYQKTKQVGLGAWLKVKGKK
B5: 9° N D141A/E143A/R406L/L408E: 9° N DNA polymerase mutant (protein, UniProt Q56366 1-775, looked up, variant D141A E143A R406L L408E)
DNA polymerase: MILDTDYITENGKPVIRVFKKENGEFKIEYDRTFEPYFYALLKDDSAIEDVKKVTAKRHGTVVKVKRAEKVQKKFLGRPIEVWKLYFNHPQDVPAIRDRIRAHPAVVDIYEYDIPFAKRYLIDKGLIPMEGDEELTMLAFAIATLYHEGEEFGTGPILMISYADGSEARVITWKKIDLPYVDVVSTEKEMIKRFLRVVREKDPDVLITYNGDNFDFAYLKKRCEELGIKFTLGRDGSEPKIQRMGDRFAVEVKGRIHFDLYPVIRRTINLPTYTLEAVYEAVFGKPKEKVYAEEIAQAWESGEGLERVARYSMEDAKVTYELGREFFPMEAQLSRLIGQSLWDVSRSSTGNLVEWFLLRKAYKRNELAPNKPDERELARRRGGYAGGYVKEPERGLWDNIVYLDFLSEYPSIIITHNVSPDTLNREGCKEYDVAPEVGHKFCKDFPGFIPSLLGDLLEERQKIKRKMKATVDPLEKKLLDYRQRAIKILANSFYGYYGYAKARWYCKECAESVTAWGREYIEMVIRELEEKFGFKVLYADTDGLHATIPGADAETVKKKAKEFLKYINPKLPGLLELEYEGFYVRGFFVTKKKYAVIDEEGKITTRGLEIVRRDWSEIAKETQARVLEAILKHGDVEEAVRIVKEVTEKLSKYEVPPEKLVIHEQITRDLRDYKATGPHVAVAKRLAARGVKIRPGTVISYIVLKGSGRIGDRAIPADEFDPTKHRYDAEYYIENQVLPAVERILKAFGYRKEDLRYQKTKQVGLGAWLKVKGKK
B6: 9° N D141A/E143A/R406V/L408R: 9° N DNA polymerase mutant (protein, UniProt Q56366 1-775, looked up, variant D141A E143A R406V L408R)
DNA polymerase: MILDTDYITENGKPVIRVFKKENGEFKIEYDRTFEPYFYALLKDDSAIEDVKKVTAKRHGTVVKVKRAEKVQKKFLGRPIEVWKLYFNHPQDVPAIRDRIRAHPAVVDIYEYDIPFAKRYLIDKGLIPMEGDEELTMLAFAIATLYHEGEEFGTGPILMISYADGSEARVITWKKIDLPYVDVVSTEKEMIKRFLRVVREKDPDVLITYNGDNFDFAYLKKRCEELGIKFTLGRDGSEPKIQRMGDRFAVEVKGRIHFDLYPVIRRTINLPTYTLEAVYEAVFGKPKEKVYAEEIAQAWESGEGLERVARYSMEDAKVTYELGREFFPMEAQLSRLIGQSLWDVSRSSTGNLVEWFLLRKAYKRNELAPNKPDERELARRRGGYAGGYVKEPERGLWDNIVYLDFVSRYPSIIITHNVSPDTLNREGCKEYDVAPEVGHKFCKDFPGFIPSLLGDLLEERQKIKRKMKATVDPLEKKLLDYRQRAIKILANSFYGYYGYAKARWYCKECAESVTAWGREYIEMVIRELEEKFGFKVLYADTDGLHATIPGADAETVKKKAKEFLKYINPKLPGLLELEYEGFYVRGFFVTKKKYAVIDEEGKITTRGLEIVRRDWSEIAKETQARVLEAILKHGDVEEAVRIVKEVTEKLSKYEVPPEKLVIHEQITRDLRDYKATGPHVAVAKRLAARGVKIRPGTVISYIVLKGSGRIGDRAIPADEFDPTKHRYDAEYYIENQVLPAVERILKAFGYRKEDLRYQKTKQVGLGAWLKVKGKK

test system: modified nucleotide; assay: Screen of DNA polymerase mutants for modified nucleotide incorporation; format: biochemical
Source text: In order to determine the extent of 3′-modified nucleotide incorporation by archaeon DNA polymerases, the titration assay described by Gardner and Jack (2002) was used. In this assay, the efficiency of incorporation of chain terminators was judged by the size of the reaction products in a polymerization reaction. As the efficiency of chain-terminator incorporation increased, the average reaction product size decreased because polymerization was more often halted by terminator addition. By comparing the amount of terminator required to give the same spectrum of reaction products, the relative efficiency of incorporation of the test compounds with the different polymerases was determined.
A complex library of 9° N DNA polymerase mutants was screened for enhanced incorporation of 3′-azido-ddCTP. Several classes of 9° N DNA polymerase mutants were identified with enhanced terminator incorporation. 9° N exo-L408S/Y409A/P410V (Therminator III™, NEB, Inc., Ipswich, Mass.) was purified and characterized in more detail. 9° N DNA polymerase single mutants P410V, L408S, and Y409A and double mutants L408S/P410V, L408S/Y409A, and Y409A/P410V were also purified for comparison. Purification and characterization of DNA polymerase mutants was as described in Gardner and Jack, Nucleic Acids Res. 27:2545-2553 (1999).
A library of 9° N DNA polymerase mutants was constructed by PCR amplification of the polymerase genes using gene-specific primers or codon optimization and gene synthesis Czar et al. Trends Biotechnol 27(2): 63-72 (2009)). The ability to incorporate 3′-modified nucleotide terminators was evaluated by the titration assay for chain terminator incorporation efficiency as described by Gardner and Jack (2002).
Furthermore, the same assay was used to measure 3′-amino-ddCTP incorporation by 9° N exo-L408S/Y409A/P410V (FIG. 3) and to measure rates of incorporation (FIG. 4). Examples of mutants that increased modified nucleotide incorporation by at least two-fold were: […]

Increase of modified nucleotide incorporation, at least two-fold:
B1
B2
B3
B4
B5
B6
